In paper PMC9464592 (Nature, 2022):

Legend:
Test in all cases: cryo-EM structure
[1] = target: T1, N-terminally Flag-tagged MIOS (human, UniProt Q9NXC5 1-875)
T1 sequence: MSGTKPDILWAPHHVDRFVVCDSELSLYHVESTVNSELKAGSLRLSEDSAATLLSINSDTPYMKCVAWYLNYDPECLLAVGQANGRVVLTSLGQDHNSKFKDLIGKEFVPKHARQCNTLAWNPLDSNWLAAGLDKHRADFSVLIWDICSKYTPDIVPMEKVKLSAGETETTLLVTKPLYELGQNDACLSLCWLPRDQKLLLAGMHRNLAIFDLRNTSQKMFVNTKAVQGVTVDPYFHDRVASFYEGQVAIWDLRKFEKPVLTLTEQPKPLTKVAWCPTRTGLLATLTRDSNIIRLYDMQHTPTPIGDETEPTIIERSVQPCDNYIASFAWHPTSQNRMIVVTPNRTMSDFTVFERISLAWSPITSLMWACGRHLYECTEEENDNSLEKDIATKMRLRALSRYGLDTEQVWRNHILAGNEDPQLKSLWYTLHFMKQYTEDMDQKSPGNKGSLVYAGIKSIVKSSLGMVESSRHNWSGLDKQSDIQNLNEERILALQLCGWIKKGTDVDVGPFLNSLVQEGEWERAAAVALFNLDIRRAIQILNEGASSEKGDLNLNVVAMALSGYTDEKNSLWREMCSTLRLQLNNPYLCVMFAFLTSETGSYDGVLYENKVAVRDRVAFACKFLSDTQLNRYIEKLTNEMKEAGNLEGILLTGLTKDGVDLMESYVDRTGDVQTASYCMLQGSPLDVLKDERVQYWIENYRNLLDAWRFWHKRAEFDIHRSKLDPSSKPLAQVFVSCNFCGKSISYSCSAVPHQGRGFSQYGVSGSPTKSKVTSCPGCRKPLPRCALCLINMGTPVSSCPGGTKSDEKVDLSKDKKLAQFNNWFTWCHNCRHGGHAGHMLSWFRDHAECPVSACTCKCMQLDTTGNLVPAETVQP

tag-free WDR24 = target: T2, tag-free WDR24 (human, UniProt Q96S15 1-790)
T2 sequence: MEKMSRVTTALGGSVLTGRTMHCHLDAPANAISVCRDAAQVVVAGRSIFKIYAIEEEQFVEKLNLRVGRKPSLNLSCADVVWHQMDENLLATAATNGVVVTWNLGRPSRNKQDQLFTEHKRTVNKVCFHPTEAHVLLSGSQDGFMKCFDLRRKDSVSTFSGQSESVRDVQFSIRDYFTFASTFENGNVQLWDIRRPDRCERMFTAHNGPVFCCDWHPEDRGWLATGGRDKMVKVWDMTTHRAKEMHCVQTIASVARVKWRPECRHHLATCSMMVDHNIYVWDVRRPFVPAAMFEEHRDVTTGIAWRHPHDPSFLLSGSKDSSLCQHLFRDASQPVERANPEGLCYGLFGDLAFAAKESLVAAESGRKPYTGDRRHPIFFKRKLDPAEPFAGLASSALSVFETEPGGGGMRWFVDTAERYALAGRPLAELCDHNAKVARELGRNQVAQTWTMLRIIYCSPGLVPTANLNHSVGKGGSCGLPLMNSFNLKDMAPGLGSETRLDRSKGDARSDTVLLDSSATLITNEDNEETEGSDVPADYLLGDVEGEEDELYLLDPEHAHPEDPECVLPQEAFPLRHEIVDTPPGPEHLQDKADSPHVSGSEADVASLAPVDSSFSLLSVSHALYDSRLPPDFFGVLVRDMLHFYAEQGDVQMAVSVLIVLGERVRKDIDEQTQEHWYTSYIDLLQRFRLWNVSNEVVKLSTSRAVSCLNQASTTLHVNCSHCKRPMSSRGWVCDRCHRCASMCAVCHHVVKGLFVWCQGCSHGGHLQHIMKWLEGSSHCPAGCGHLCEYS

tag-free WDR59 = target: T3, tag-free WDR59 (human, UniProt Q6PJI9 1-974)
T3 sequence: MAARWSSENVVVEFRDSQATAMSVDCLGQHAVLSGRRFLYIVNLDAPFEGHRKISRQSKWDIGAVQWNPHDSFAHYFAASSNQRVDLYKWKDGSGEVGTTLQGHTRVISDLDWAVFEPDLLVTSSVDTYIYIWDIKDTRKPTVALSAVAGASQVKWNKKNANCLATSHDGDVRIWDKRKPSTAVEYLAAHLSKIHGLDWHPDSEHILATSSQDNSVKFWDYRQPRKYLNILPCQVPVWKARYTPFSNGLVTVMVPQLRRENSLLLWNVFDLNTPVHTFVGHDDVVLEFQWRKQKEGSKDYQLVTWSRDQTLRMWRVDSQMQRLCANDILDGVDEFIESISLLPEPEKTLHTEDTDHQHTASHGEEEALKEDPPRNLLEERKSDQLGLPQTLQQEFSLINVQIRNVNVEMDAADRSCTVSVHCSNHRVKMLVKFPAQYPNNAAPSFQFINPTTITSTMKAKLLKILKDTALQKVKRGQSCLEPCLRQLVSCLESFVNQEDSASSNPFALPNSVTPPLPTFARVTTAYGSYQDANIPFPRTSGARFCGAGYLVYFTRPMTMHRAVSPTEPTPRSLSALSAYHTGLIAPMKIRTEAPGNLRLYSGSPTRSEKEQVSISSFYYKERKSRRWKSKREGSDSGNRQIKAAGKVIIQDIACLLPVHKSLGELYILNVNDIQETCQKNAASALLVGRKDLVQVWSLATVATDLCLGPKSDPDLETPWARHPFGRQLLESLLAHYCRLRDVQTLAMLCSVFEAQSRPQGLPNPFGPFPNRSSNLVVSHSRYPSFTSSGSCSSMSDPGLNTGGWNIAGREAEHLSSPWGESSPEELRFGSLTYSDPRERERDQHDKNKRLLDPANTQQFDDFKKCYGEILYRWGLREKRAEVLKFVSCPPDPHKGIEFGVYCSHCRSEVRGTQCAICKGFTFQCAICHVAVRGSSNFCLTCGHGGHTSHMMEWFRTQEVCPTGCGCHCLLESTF

binding result [1]: binds | binding result (tag-free WDR24): binds | binding result (tag-free WDR59): binds
B1: tag-free SEC13 (natural protein, human)
chain: MVSVINTVDTSHEDMIHDAQMDYYGTRLATCSSDRSVKIFDVRNGGQILIADLRGHEGPVWQVAWAHPMYGNILASCSYDRKVIIWREENGTWEKSHEHAGHDSSVNSVCWAPHDYGLILACGSSDGAISLLTYTGEGQWEVKKINNAHTIGCNAVSWAPAVVPGSLIDHPSGQKPNYIKRFASGGCDNLIKLWKEEEDGQWKEEQKLEAHSDWVRDVAWAPSIGLPTSTIASCSQDGRVFIWTCDDASSNTWSPKLLHKFNDVVWHVSWSITANILAVSGGDNKVTLWKESVDGQWVCISDVNKGQGSVSASVTEGQQNEQ
